Test results: patent US20210040201A1 (Innovent, published 2021)
Read-outs that look alike come from different tables or passages of the source.

T1: Human TIGIT expressed on the surface of cells (human, UniProt Q495A1 22-244)
T1 sequence: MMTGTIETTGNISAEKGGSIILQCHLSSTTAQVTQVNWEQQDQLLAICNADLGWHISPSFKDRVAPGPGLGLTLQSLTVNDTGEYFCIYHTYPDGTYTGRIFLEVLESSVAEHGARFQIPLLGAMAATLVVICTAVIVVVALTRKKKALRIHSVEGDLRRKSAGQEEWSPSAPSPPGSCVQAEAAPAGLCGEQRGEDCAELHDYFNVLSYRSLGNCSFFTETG

T2: Human TIGIT-his (ACRO, TIT-H52H3) (human, UniProt Q495A1 22-141)
T2 construct: Bought protein
T2 sequence: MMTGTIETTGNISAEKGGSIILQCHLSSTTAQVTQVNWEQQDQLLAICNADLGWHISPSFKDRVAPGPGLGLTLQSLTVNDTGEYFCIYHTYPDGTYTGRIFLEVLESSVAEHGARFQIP


Experiments:
[1] = target: T1, Human TIGIT expressed on the surface of …; assay: cell-based or functional assay
[2] = target: T1, Human TIGIT expressed on the surface of …; assay: cell-based or functional assay; remark: listed apart in the source
[3] = target: T1, Human TIGIT expressed on the surface of …; assay: flow cytometry on CHOS cells expressing human TIGIT; reference antibody
[4] = target: T2, Human TIGIT-his (ACRO, TIT-H52H3); assay: BLI (ForteBio), antibody loaded on AHQ sensor, 100 nM TIGIT-his, 1:1 model, monovalent
[5] = target: T3, Monkey TIGIT-his (ACRO, TIT-05223) (monkey); assay: as above
T3 construct: Bought protein

[6] = target: T1, Human TIGIT expressed on the surface of …; assay: flow cytometry on CHO cells overexpressing human TIGIT; reference antibody in the run with CHO-expressed antibodies
[7] = target: T1, Human TIGIT expressed on the surface of …; assay: flow cytometry competition against 50 nM human CD155-mouse IgG2a Fc on CHOS cells expressing human TIGIT; positive control
[8] = target: T1, Human TIGIT expressed on the surface of …; assay: as above; remark: listed apart in the source

Row | Binder | EC50, MOA-based assay (luciferase reporter under IL2 promoter), positive control in the run with CHO-expressed antibodies [1] [pM] | EC50, MOA-based assay (luciferase reporter under IL2 promoter) [2] [pM] | EC50 [3] [pM] | Kd [4] [pM] | Kd [5] [pM] | EC50 [6] [pM] | IC50 [7] [pM] | IC50 [8] [pM]
1 | 31C6 (anti-human TIGIT reference antibody from Merck) (antibody, V domains shown) VH: EVQLVQSGAEVKKPGASVKVSCKASGYTFSSYVMHWVRQAPGQGLEWIGYIDPYNDGAKYAQKFQGRVTLTSDKSTSTVYMELSSLRSEDTAVYYCARGGPYGWYFDVWGQGTTVTVSS VL: DIQMTQSPSSLSASVGDRVTITCRASEHIYSYLSWYQQKPGKAPKLLIYNAKTLAEGVPSRFSGSGSGTDFTLTISSLQPEDFATYYCQHHFGSPLTFGQGTRLEIK | 342 | 838 | 436 | 2340 | 472 | 185 | 154 | 166
2 | 22G2 (anti-human TIGIT reference antibody from BMS) (antibody, V domains shown) VH: QVHLQESGPGLVKPSETLSLTCTVSGGSVSSGIYYWSWIRQPPGKGLEWIGYIYYSGSTNYNPSLKSRVTISVDTSKNQFSLKLSSVTAADTAVYYCARDYYVSGNYYNVDYYFFGVDVWGQGTTVTVSS VL: EIVLTQSPATLSLSPGERATLSCRASQSVSSYLAWYQQKPGQAPRLLIYDASNRATGIPARFSGSGSGTDFTLTISSLEPEDFAVYYCQQRSNWPPLFTFGPGTKVDIK |  | 2110 | 511 | 3500 | 4200 | 725 | 179 | 607
